Experiment: label from the status in PepcDB records
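Also: failed if final PepcDB status was selected cloned or expressed and not failed if soluble or beyond.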

| Sequence | protein production |
| --- | --- |
| MSNACLASSLLSVCFRLSTERSAMSTSRLRPRCLSVLLAALLLWGGLPTASAQPQRAVRADTLYTMTGDPIENGVVLIENETIAAVGPTSEVDVPASAEVHKASVVTPGLIDPRGTVGLSGIYNVPADQDQLDTSEPMQPALRALDAYNPREQLVSFVQQLGFTTVHTGHAPGALISGQTATFSTAGTTVEASLRDSITTVAFTLGPDAQARFESPGTRAKGVAMLRQALHDAQAAMDGGEPEGGDLGQDVLQDVLRGEVPALITAHRAHDIQTALRLQEEFGFDLILDGAAEAYLMTEEIAEADVPVILHPTMARPSGTTQNAAFTTAGVLHDAGVPVAIQTGWEPYVPKTRIALYEAAIAMAHGLPREAALASITREAAEILGLDNVGTVAPGQRADLALFDGDPFEYTTHVCTVLSGGEVVSDECK | failed |
| MSNEDNVRQETKNKKEKLRLSFPETRFMKFMGGKDLLFALIMLILIGIAIFIFDQVSYIFKPFIIVFNTIVAPIIVSIILYYLFNPLVNLMERYNISRLWGVIILFLVIIGVIALAINLLIPVIGTQFKSFGNNFPHYVDKVNQFIDNLTRNSLISNFYGQIQEQLDALANKLPSMVSDYFNGFGSKVKNFAEAIVNVGVVIATTPFVLFFMLKDSHHFKEYSTKLMPPKFRKDYHDLLDKMSVQVGSYIQGQIIVSFCIGILLFIGYSIIGLDYSLILASIAAVTSVVPYLGPTIAISPAIIIALITSPIMLLKLIIVWTAVQFIEGHFISPNIMGKTLKIHPLTIIFILLSAGNLLGVVGVILGIPAYAILKVLVSHLYSMYKRRYNKYYGDDAGEYEITNDEQIR | failed |
| MSNFFSVRIETLGCRLNQVESEALAVRFAECGFDVFSKEAETSILPVKLCIVNTCTVTGKAEQKARRLIRLLLKEHEESVILVTGCYAELEADSIEKINKRIIAFSGKKKDELDGLPQFLKDSCLKNKDLKEDTVNLKKNLLIFRNEIYAKEDQQDKSFLLKETERRKSMFKLSSPVFVFHSRASLKIQDGCNNACAYCRIRLARGTSVSLPAEEAVRRIVQIEKNGAAEVVLSGVNLSQYRDETYGGFANLLAKLLENTKKIRLRISSMYPECVDDGILEIVANKRICPHFHLSIQSGSDKILKAMNRPYREADIRMAINNLRKAKDNPFIGCDIITGFPSETEEDFLQTFKMCEDLKIPGIHVFPFSARPGTKAFSMRPKVPEREAGRRASLLSELSGKNYQSYLASCNGKLFFGVIEKPQNNEDLRIVTENYLSLPLVVNKKAENYKGGEGLFVVIKDGNAYLAD | failed |
| MSNFSEGEIFIANIEKKSLECRENDEIVVLKICELCNIIYPIFNKIFGNGFVGDTLKKDLKNSSSQVQRAIEKFPEETKYVSMLYSYNINKYENMEKLKRDLDNGIISFLWMKRTLEFIITFLEKCYITCSETKLSICAQEAYNEVLKKYHGFITSKIVKLCLKLSPTKDILTKKLGFQTHQQASTVLQKCLSITKPLVRDISVTIEKFNCDFEEKI | failed |
| MSNKIITLEINLEPSDNHRLASLCGPFDDNIKHLERRLGVEINYRGNFFTIVGQPHTAAAALDIIKTLYVETAPVRGQITDIEPEQIHLAIKESGVLEQHSESSIAHGKEVFVKTKKGVIKPRTPNQAQYLMNMVTHDITFGVGPAGTGKTYLAVAAAVDALERQEIRRILLTRPAVEAGEKLGFLPGDLSQKVDPYLRPLYDALFEMLGFERVEKLIERNVIEVAPLAYMRGRTLNDAFIILDESQNTTVEQMKMFLTRIGFNSRAVITGDVTQIDLPRGAKSGLRHAIEVLNEVDEISFNFFQADDVVRHPVVARIVNAYEKWEAQDQKERKEYEQRRREERENKLLEMQRAEMTLSHNNESNPS | failed |
| MSNMQLDTLRRIVQEINSSVSLHDSLDIMVNQVADAMKVDVCSIYLLDERNQRYLLMASKGLNPESVGHVSLQLSEGLVGLVGQREEIVNLENASKHERFAYLPETGEEIYNSFLGVPVMYRRKVMGVLVVQNKQPQDFSEAAESFLVTLCAQLSGVIAHAHAVGNID | not failed |
| MSNNGSSPLVLWYNQLGMKDVDRVGGKNASLGEMITNLSGMGVSVPNGFATTADAFNQFLDQSGVNQRIYELLDKTDIDDVTQLAKAGAQIRQWIIDTPFQPELENAIREAYAQLSADDENASFAVRSSATAEDMPDASFAGQQETFLNVQGFDAVLVAVKHVFASLFNDRAISYRVHQGYDHRGVALSAGVQRMVRSDLASSGVMFSIDTESGFDQVVFITSAWGLGEMVVQGAVNPDEFYVHKPTLAANRPAIVRRTMGSKKIRMVYAPTQEHGKQVKIEDVPQEQRDIFSLTNEEVQELAKQAVQIEKHYGHPMDIEWAKDGHTGKLFIVQARPETVRSRGQVMERYTLHSQGKIIAEGRAIGHRIGAGPVKVIHDISEMNRIEPGDVLVTDMTDPDWEPIMKKASAIVTNRGGRTCHAAIIARELGIPAVVGCGDATERMKDGENVTVSCAEGDTGYVYAELLEFSVKSSSVETMPDLPLKVMMNVGNPDRAFDFACLPNEGVGLARLEFIINRMIGVHPRALLEFDDQEPQLQNEIREMMKGFDSPREFYVGRLTEGIATLGAAFYPKRVIVRLSDFKSNEYANLVGGERYEPDEENPMLGFRGAGRYVSDSFRDCFALECEAVKRVRNDMGLTNVEIMIPFVRTVDQAKAVVEELARQGLKRGENGLKIIMMCEIPSNALLAEQFLEYFDGFSIGSNDMTQLALGLDRDSGVVSELFDERNDAVKALLSMAIRAAKKQGKYVGICGQGPSDHEDFAAWLMEEGIDSLSLNPDTVVQTWLSLAELKK | failed |
| MSNNNKYFTITKKQYKKMRRNKIELLFNVKVLKKKNGRQKFKILHEVENKPKIPIKIIEDQPESPKPLKPPKPPKPPKGPDNPEEPDSPEEPKETDQPGGPDNPNAGNKKMPTPEEYVTRKEFNEFKDSNNQRLTKIENKVDKLEVKVDKLAEIVQTQGEEIKELKVEQKAQSETLQLILKTLQKMNDRLDRMETRLDKIDSPKLEHHHHHH | not failed |
| MSNNQQMMLNRIKVVLAEKQRTNRWLAEQMGKSENTISRWCSNKSQPSLDMLVKVAELLNVDPRQLINGKIKI | not failed |
| MSNPNEDSPMILQRIFALALLAMCAALAVMAWPYQAAFSYEPVGPRAYPLLVLGLMGLGLLYLVFRPTPIVRKDDEPELDRETLIKITACVGLLIVFAATFEALGFILSAILVGLPMARLYGGRWLQSAIVVAGMSIFLYWLFDRVMDVPLPLGLLSVLEN | failed |
| MSNQYDPSQPVVFTDFSPKEGGMRTRLYIEGSNFGNDPTKIHITIGGEKTKTIGADGKKIYCMVPSKAFDGIINVRVDGPDGKPIAEHTFEEEFKYTPATIVGTLLRKVDEDNNSAFQEGSFDEGASIPSNDCMVFDPKYKDGDNRLLFSSNHSDGLHLIDLTERTVKRLFPRTGYSTMYSFTFSADGDTLLFTDDHGQDNTTRANIYYSLRRENFRRIRPYNYGRTAYSLVYMDDGTIFYTTWWEGKVYKMIRNGAIPNIDENAEVAFSLSQISAVGGSHTILFRHPSNKFMYMLSDNFGAVFRADYDPVAKTFGNPSIIAGNMNDKSFKEGTGGSARFNKPQFGVFVKNEKYGEGIGPDNDQYDFYFCDRENHCIWKLDPHGVASLAAGRSNENADGKIWGYVDGNPLHEARFNQPAGLAYDPDTDMFYIGDIDNKGIRYMTTELEHHHHHH | failed |
| MSNSHPLRPFTAVGEIDHVHILSEHIGALLIGEEYGDVTFVVEKKRFPAHRVILAARCQYFRALLYGGMRESQPEAEIPLQDTTAEAFTMLLRYIYTGRATLTDEKEEVLLDFLSLAHKYGFPELEDSTSEYLCTILNIQNVCMTFDVASLYSLPKLTCMCCMFMDRNAQEVLASDGFLSLSKTALLNIVLRDSFAAPEKDIFLALLNWCKHNAKENHAEIMQAVRLPLMSLTELLNVVRPSGLLSPDAILDAIKVRSESRDMDLNYRGMLIPEENIATMKYGAQVVKGELKSALLDGDTQNYDLDHGFSRHPIDDDCRSGIEIKLGQPSIINHIRLLLWDRDSRSYSYFIEVSMDELDWIRVIDHSHYLCRSWQKLYFPARVCRYIRIVGTHNTVNKIFHIVAFECMFTNKAFTLEKGLIAPMENVATIADCASVIEGVSRSRNALLNGDTKNYDWDSGYTCHQLGSGAIVVQLAQPYMIGSIRLLLWDCDDRSYSYYVEVSTNQQQWTMVADRTKVSCKSWQSVTFERQPASFIRIVGTHNTANEVFHCVHFECPEQQSTQKEDSSEEPGTGDLSTPSQQLDPHAPRAPSASSLPPSPGPNLHSPNQQNQ | failed |
| MSNSIFHKIIKSVKGLKLKTDPNLPGAKQKTPLNIKRFYLLIILVIYTATSACIYFDWSAIRKLLLHVGKYKHLNVDEYSDMTLSPQYKRINGLYPLTLAVHFTTSVFCGFLYDHIGPKFTAIIGQLFNIICWILLSIDIKGVDTTLWGFIFLGLGADTAFIPVLTVSNLYPDASTFILTVIGAAASLSYAVPATLNLVLKYFPNLSFSYVCYGYIILILIPCLLTAAFLLPLKPFKALDYYLEKNNETTKHTNAEGRSRSSNNIYTNEEDEFHFKNNASGMVDKDSTENNMNTDEHNYYNNGNISSNDLENNIQTNNRNNNKNNNYNNNNNNNNIIKKNTKISDQSTVKKDKSIDSNKNILHDEEDFHKKSIFLFFKILISYPSVCVITYFILFNISTVFYGMVTDTYFSYDRSIINVINILMPLSSIPCVVFGRFINKYGASVIILTINTLSVLMHLCALIKFRFAGLCSAFLYMCVTSVYTSQIYCFIQNSFPSIVFGKLLGFASLCGGIFSLLCEKLYDLIIIKDSSSIDPTNISLLIVIAFIIMFLPLSILYVRKYERSIENFGEKDKLPMN | failed |
| MSNSINLGRVAVIDIGKTNAKVVVIDTGSGEEIAAEKRTNPVLRDGPYPHYDVEMLWNFILAALQRFGHEPGFDAISITTHGASAALLDGTGDLAMPVLDYEHIYAEPVQQAYRGIRPDFAETGSPQLPAGLNLGAQIHFQKTNFPDDFARVRSIVTYPQYWAGRLTGVQATETTSLGCHTDLWNPRRKSFSSLVGRLGIEHLMAPVRSAFDVLGTIRPSLAQETGLSPDMPVYCGIHDSNASLLPHLLRREGDFSVVSTGTWVVNFAIGGKADALDPARDTLLNVDALGRPVPSSRFMGGREYEMLAQQFGAATPHDIEAALGGVIEKGMMLLPSVVSGSGPFPQSASRWIADSDATGAERHAAASLYLALMTEFCLSLVERRGPIVVEGPFAGNALYLKALAAFAATDVIAMEGSTGTSAGAALLTGIKPVAGRERHFTAEDIAGLTSYRTAWQNHLT | failed |
| MSNSQAGPGASVRRVLAVIPARGGSKGVPAKNLAPVGGVPLVVRAVRECLAARLVTDVVVSTDDQAIAAAAREAGAEVVLRPAAIAGDTATSEAAVLHAMDAHEALHGAAVDVVLLVQCTSPFLVREDVDGVAGAVVEDGADTAVTVAPFHGFVWRDGADEPGGADGGHGVNHDKAYRPRRQDRPQDLLETGAAYAMAAPGFRKHRHRFFGRTDLVRTDPARVLEIDDPHDLARARALAPHFDTARPGALPTAADIDAVVLDFDGTQTDDRVLIDTDGREFVSVHRGDGLGIAALRRSGLTMLILSTEVNPVVAARARKLKLPVLHGIDRKDLALKQWCEEQGIAPERVLYVGNDVNDLPCFALVGWPVAVASAHDAVRGAARAVTTVPGGEGAVREIAAWLLGPSLDALGPASETTPTLTQSKLEHHHHHH | not failed |
| MSNVAQYKDGTYIGKAQGKAAEVEVTVSIKEGKIANAEVLKHGDTEAMMLSATDQIVPELIEKQDINKVDAVTGATLSSQGVINAVKQALEQAKVTPLEHHHHHH | not failed |
| MSNVCIVYSSTHHGNTEKVLNKIKEKFPETVLIKAGDFNPDDFNRYEAIGFASGIFYFKFAKPVDKLFEQALVGSVQKLFFIYTAGAVNAGFEKTLRKKTEQSGKICMGIFGCKGFDTFGPLKLIGGLNKNSPNEKDFKNAIDFFEKNIINALEHHHHHH | not failed |
| MSNYPLHQACMENEFFKVQELLHSKPSLLLQKDQDGRIPLHWSVSFQAHEITSFLLSKMENVNLDDYPDDSGWTPFHIACSVGNLEVVKSLYDRPLKPDLNKITNQGVTCLHLAVGKKWFEVSQFLIENGASVRIKDKFNQIPLHRAASVGSLKLIELLCGLGKSAVNWQDKQGWTPLFHALAEGHGDAAVLLVEKYGAEYDLVDNKGAKAEDVALNEQVKKFFLNNV | not failed |
